Reference: patent US20160017016A1 (AstraZeneca / MedImmune, published 2016)
*1 amine or outer side, *2 acyl side, *3 side chain or, on linkers, in order; H or OH if unused. Primed or numbered codes have the meaning given here. Where no end group is shown, it is not given here. Side-chain parts run from the residue outwards. [ ]: non-standard residue; d: D form. The star is where a group is joined. PEG4′ = 4 PEG units (K(PEGxpalm): Lys with x PEG units and palmitoyl at epsilon N, C-terminal (PEG)4); γGlu = O=C(O)[C@H](CCC(=O)[*:2])N[*:1]; Palmitoyl = CCCCCCCCCCCCCCCC(=O)*; Aib = CC(C)(N)C(=O)O

Experiments:
[1] = biological target: human GLP-1 receptor (GLP-1R) (human, UniProt P43220 24-463); assay: cell-based or functional assay
[2] = biological target: human glucagon receptor (GCGR) (human, UniProt P47871 26-477); assay: cell-based or functional assay
Chain of human glucagon receptor (GCGR) (P47871 26-477): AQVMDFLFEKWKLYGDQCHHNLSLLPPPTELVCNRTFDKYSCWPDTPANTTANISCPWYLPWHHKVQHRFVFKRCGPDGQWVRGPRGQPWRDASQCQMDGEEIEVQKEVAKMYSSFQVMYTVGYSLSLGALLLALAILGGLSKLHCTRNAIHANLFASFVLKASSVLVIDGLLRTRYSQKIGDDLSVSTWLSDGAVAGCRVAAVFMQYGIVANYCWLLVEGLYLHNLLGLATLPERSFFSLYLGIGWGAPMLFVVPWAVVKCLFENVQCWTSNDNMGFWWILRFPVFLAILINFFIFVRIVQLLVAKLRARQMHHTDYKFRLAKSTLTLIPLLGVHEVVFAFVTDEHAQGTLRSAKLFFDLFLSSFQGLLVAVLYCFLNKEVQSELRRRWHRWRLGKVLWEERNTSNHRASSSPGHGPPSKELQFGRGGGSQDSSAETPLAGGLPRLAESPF

Binder | cAMP activity, GLP1 EC50 nM [1] [nM] | cAMP activity, Glcg EC50 nM [2] [nM]
HSQGTFTSDYSKYLDSRRAQDFVQWLV (C-terminal 11-aminoundecanoic acid (Aud)) [g358] | 3.2 | 0.03
HSQGTFTSDYSKYLDK([PEG4′-Palmitoyl])SRARDFVAWLV[PEG4′] [g972] | 0.03 | 0.03
HSQGTFTSDYSKYLDSXRAQDFVQWLE (K(PEG3-palm) at 17; C-terminal PEG4) [g503] | 0.02 | 0.002
HSQGTFTSDYSKYLDSXRAQDFVQWLV (not fully specified; K(PEG4-palm) at 17; C-terminal PEG8) [g439] | 0.008 | 0.002
HSQGTFTSDYSKYLDKRRAQDFVQWLV[PEG4′] (not fully specified (residue 16); printed as HSQGTFTSDYSKYLDB1RRAQDFVQWLVZ4) [g425] | 0.008 | 0.002
HXQGTFTSDYSKYLDSXRAQDFVQWLV (alpha-amino-iso-butyric acid (Aib) at 2; K(PEG4-palm) at 17; C-terminal PEG4) [g501] | 0.03 | 0.003
HSQGTFTSDYSKYLDSRRAQDFVQWLV (C-terminal PEG4) [g356] | 0.05 | –
HSQGTFTSDYSKYLDK([γGlu-Palmitoyl])RRAQDFVQWLV[PEG4′] [g424] | 0.4 | 0.009
HGQGTFTSDYSRYLDSK([γGlu-Palmitoyl])RARDFVEWLV[PEG4′] [g719] | 0.09 | –
HSQGTFTSDYSKYLDSXRAQDFVQWLE (K(PEG2-palm) at 17; C-terminal PEG4) [g502] | 0.03 | 0.001
H[Aib]QGTFTSDYSKYLDSK([γGlu-Palmitoyl])RAQDFVAWLV[PEG4′] [g870] | 0.09 | –
HSQGTFTSDYSKYLDSXRAQDFVQWLE (not fully specified; K(PEG4-palm) at 17; C-terminal PEG4) [g429] | 0.004 | 0.005
HGQGTFTSDYSKYK([γGlu-Palmitoyl])DSRRAQDFVQWLV[PEG4′] [g514] | 0.1 | 0.02
HSQGTFTSDYSKYKDSRRAQDFVQWLV[PEG4′] (not fully specified (residue 14); printed as HSQGTFTSDYSKYB1DSRRAQDFVQWLVZ4) [g427] | 0.004 | 0.002
HSQGTFTSDYSKYLDSKRAQDFVQWLEA (K(gE-palm) at 17 (printed as B); C-terminal PEG2) [g533] | 0.09 | 0.003
HSQGTFTSDYSXYLDSRRAQDFVQWLV (not fully specified; K(PEG4-palm) at 12; C-terminal PEG4) [g417] | 0.02 | 0.003
HSQGTFTSDYSKYLDSRRAQXFVQWLV (K(gE-palm) at 21; C-terminal PEG4) [g808] | 50 | –
HSQGTFTSDYSXYLDSRRAQDFVQWLV (K(gE-palm) at 12; C-terminal PEG4) [g416] | 1 | 0.6
HSQGTFTSDYSKYLDSXRAQDFVQWLV (K(gE-palm) at 17; C-terminal PEG4) [g414] | 0.2 | –
HGQGTFTSDYSKYLESK([PEG4′-Palmitoyl])RAQDFVQWLV[PEG4′] [g499] | 0.02 | 0.03
HGQGTFTSDYSKYLDSXRAQDFVQWLV (not fully specified; K(PEG4-palm) at 17; C-terminal PEG4) [g431] | 0.006 | 0.004
HSQGTFTSDYSKYLDEK([γGlu-Palmitoyl])RAQDFVQWLV[PEG4′] [g810] | 0.5 | 0.03
HGQGTFTSDYSKYLDSXRAQDFVQWLV (K(gE-palm) at 17; C-terminal PEG2) [g691] | 0.05 | –
HXQGTFTSDYSKYLDSXRAQDFVQWLV (alpha-amino-iso-butyric acid (Aib) at 2; K(gE-palm) at 17; C-terminal PEG4) [g500] | 0.08 | –
HSQGTFTSDYSKYLDK([PEG4′-Palmitoyl])RRAQDFVQWLE[PEG4′] [g495] | 0.09 | 0.002
HSQGTFTSDYSKYLDSXRAQDFVQWLV (not fully specified; K(PEG2-palm) at 17; C-terminal PEG4) [g435] | 0.01 | 0.002
HSQGTFTSDYSKYLDSXRAQDFVQWLV (K(PEG3-palm) at 17; C-terminal PEG4) [g434] | 0.005 | 0.02
HGQGTFTSDYSKYLDSXRAQDFVQWLV (K(gE-palm) at 17; C-terminal PEG3) [g690] | 0.06 | 0.1
HSQGTFTSDYSKYLDSXRAQDFVQWLV (not fully specified; K(PEG4-palm) at 17; C-terminal PEG6) [g438] | 0.005 | 0.002

Further lines, results first:

cAMP activity, GLP1 EC50 nM [1] [nM] | cAMP activity, Glcg EC50 nM [2] [nM] | Binder
0.07 | – | HSEGTFTSDYSKYLDSK([γGlu-Palmitoyl])RAQDFVQWLV[PEG4′] [g432]
0.3 | – | HSQGTFTSDYSEYLDSK([γGlu-Palmitoyl])RARDFVAWLV[PEG4′] [g784]
1.6 | 0.08 | HSQGTFTSDYSKYLDSRRAQDFVQWLV (C-terminal 6-aminohexanoic acid (Ahx)) [g357]
0.2 | 0.7 | HSQGTFTSDYSKYLDSRK([γGlu-Palmitoyl])AQDFVQWLV[PEG4′] [g422]
0.3 | – | HGQGTFTSDYSEYLDSK([γGlu-Palmitoyl])RARDFVEWLV[PEG4′] [g677]
0.007 | 0.002 | HSQGTFTSDYSKYLDSRKRAQDFVQWLV[PEG4′] (not fully specified (residue 18); printed as HSQGTFTSDYSKYLDSRB1RAQDFVQWLVZ4) [g415]
0.06 | – | HGQGTFTSDYSKYLDSXRAQDFVQWLV (K(gE-palm) at 17; C-terminal PEG6) [g692]
0.006 | 0.002 | HSQGTFTSDYSKYLDSXRAQDFVQWLV (not fully specified; K(PEG4-palm) at 17; C-terminal PEG2) [g437]
0.004 | 0.03 | HSEGTFTSDYSKYLDSKRAQDFVQWLV[PEG4′] (not fully specified (residue 17); printed as HSEGTFTSDYSKYLDSB1RAQDFVQWLVZ4) [g433]
0.6 | 0.08 | HGQGTFTSDYSKYLDSXRAQDFVQWLE (K(gE-palm) at 17; C-terminal PEG4) [g516]
0.1 | 0.4 | HSEGTFTSDYSKYK([γGlu-Palmitoyl])DSRRAQDFVQWLV[PEG4′] [g515]
0.09 | – | HSQGTFTSDYSKYLDSK([γGlu-Palmitoyl])RARDFVAWLV[PEG4′] [g800]
0.5 | 0.08 | HSQGTFTSDYSKYLDSRK([γGlu-Palmitoyl])AQDFVQWLE[PEG4′] [g454]
0.8 | > 1800 | HGQGTFTSDYSKYLDSEK([γGlu-Palmitoyl])ARDFVAWLV[PEG4′] [g735]
8 | – | HSQGTFTSDYSKYLDK([γGlu-Palmitoyl])RRAQDFVQWEV[PEG4′] [g496]
0.01 | 0.002 | HSQGTFTSDYSKYLDSXRAQDFVQWLV (not fully specified; K(PEG4-palm) at 17; C-terminal PEG3) [g436]
0.008 | 0.002 | HSQGTFTSDYSKYLDSXRAQDFVQWLV (not fully specified; K(PEG4-palm) at 17; C-terminal PEG12) [g440]
0.01 | 0.004 | HSQGTFTSDYSKYLDSRKAQDFVQWLV[PEG4′] (not fully specified (residue 18); printed as HSQGTFTSDYSKYLDSRB1AQDFVQWLVZ4) [g423]
